The source of these data is patent publication US20080063651A1 (published 2008).

What is called Kd is the equilibrium constant for the complex coming apart.

The test addresses T1, Recombinant human TNF-α (human, UniProt P01375 77-233).
T1 construct: also called tumor necrosis factor-α; biotinylated TNF-α
The test can be described thus: 35S-labelled free protein with biotinylated TNF-α, biotin capture membrane, phosphorimaging.

T1 sequence (P01375 77-233 limits assumed): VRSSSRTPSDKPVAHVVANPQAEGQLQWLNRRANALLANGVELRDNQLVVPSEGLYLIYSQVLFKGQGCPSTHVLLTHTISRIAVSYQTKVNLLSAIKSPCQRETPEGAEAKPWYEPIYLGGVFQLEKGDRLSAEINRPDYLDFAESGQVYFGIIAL

B1: clone M12.04 (designed binder)
chain: VSDVPGDLEVVAATPTSLLIGWSMTPNWPRYYRIAYGETGGDSPVQEFTVPPWASIAIIGGLKPGVDYTITVYAVTHRDTPISINYRT
Consider B1, for which the Kd amounted to 20 µM.

B2: clone T09.12 (designed binder)
chain: VSDVPRDLEVVAATPTSLLISWRPTSNPPRYYRITYGETGGNSPVQEFTVPPWASTATISGLKPGVDYTITVYAVTAQTGHHLHDKPISINYRT
For the molecule B2, the Kd is 0.004 µM.
